Patent US20060259987A1 (UNIVERSITY OF UTAH RESEARCH FOUNDATION, published 2006)
Where a chain is given by its changes, count along the chain named.

B1: LEAI.474 (other)
chain: SPVDICTAKPRDIPMNPMCIYRSPEKKATEDEGSEQKIPEATNRRVWELSKANSRFATTFYQHLADSKNDNDNIFLSPLSISTAFAMTKLGACNDTLQQLMEVFKFDTISEKTSDQIHFFFAKLNCRLYRKANKASKLVSANRLFGDKSLTFNETYQDISELVYGAKLQPLDFKENAEQSRAAINKWVSNKTEGRITDVIPSEAINELTVLVLVNTIYFKGLWKSKFSPENTRKELFYKADGESCSASMMYQEGKFRYRRVAEGTQVLELPFKGDDITMVLILPKPEKSLAKVEKELTPEVLQEWLDELEEMMLVVHMPRFRIEDGFSLKEQLQDMGLVDLFSPEKSKLPGIVAEGRDDLYVSDAFHKAFLEVNEEGSEAAASTALEAQGRSLNPNRVTFKANRPFLVFIREVPLNTIIFMGRVANPCVK
notes: also called DES.LEAI.474
B2: LEAI.482 (other)
chain: B1 chain with Q389H
B3: LEAI.480 (other)
chain: B1 chain with Q389Y

Experiments:
[1] = target: T1, thrombin (human, UniProt P00734 328-622); assay: Kapp IIa/hep relative to plasma.at3
[2] = target: T1, thrombin; assay: thrombin +hep: pseudo-first-order loss of chromogenic activity with heparin
Description: (§1) Polybrene was added with the chromogenic substrate to quench the heparin dependent reaction. The observed pseudo-first-order rate constants were calculated for each heparin (1 nM-5 nM) concentration from the slope of the log of residual proteinase activity vs. time. This was plotted against the heparin concentration to calculate the second-order rate constant for the inhibition by the heparin-ATIII complex, (Kₕₑₚ) from the equation Kobs=Kₕₑₚ[H]ₒ([AT]ₒ/[AT]ₒ+Kd)+Kuncat[AT]ₒ

[3] = target: T2, factor Xa (human, UniProt P00742 41-179; P00742 235-488, limits assumed); assay: Kapp fXa/prog relative to plasma.at3
T2 construct: also called fXa; human factor Xa
T2 sequence (P00742 41-179 limits assumed, chain 1 of 2): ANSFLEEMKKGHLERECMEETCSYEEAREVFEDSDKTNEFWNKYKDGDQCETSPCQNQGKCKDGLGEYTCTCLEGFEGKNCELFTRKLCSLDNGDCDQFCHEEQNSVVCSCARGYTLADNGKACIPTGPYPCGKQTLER
T2 sequence (P00742 235-488 limits assumed, chain 2 of 2): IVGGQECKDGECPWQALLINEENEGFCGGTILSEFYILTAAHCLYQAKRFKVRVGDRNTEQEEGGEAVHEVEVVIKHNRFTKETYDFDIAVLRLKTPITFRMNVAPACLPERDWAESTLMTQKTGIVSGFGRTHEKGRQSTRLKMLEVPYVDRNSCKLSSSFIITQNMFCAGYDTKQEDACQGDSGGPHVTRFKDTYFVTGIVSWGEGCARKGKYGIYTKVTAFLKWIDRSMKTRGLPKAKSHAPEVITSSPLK

[4] = target: T2, factor Xa; assay: factor Xa +hep: pseudo-first-order loss of chromogenic activity with heparin
Description: as §1

[5] = target: T1, thrombin; assay: cell-based or functional assay
[6] = target: T2, factor Xa; assay: cell-based or functional assay
[7] = target: T2, factor Xa; assay: factor Xa prog: pseudo-first-order loss of chromogenic activity, no heparin, 25 C
Description: (§2) Polybrene was added with the chromogenic substrate to quench the heparin dependent reaction. […] This was plotted against the heparin concentration to calculate the second-order rate constant for the inhibition by the heparin-ATIII complex, (Kₕₑₚ) from the equation Kobs=Kₕₑₚ[H]ₒ([AT]ₒ/[AT]ₒ+Kd)+Kuncat[AT]ₒ

[8] = target: T2, factor Xa; assay: Kapp fXa/hep relative to plasma.at3
[9] = target: T1, thrombin; assay: thrombin prog: pseudo-first-order loss of chromogenic activity, no heparin, 25 C
Description: as §2

[10] = target: T1, thrombin; assay: Kapp IIa/prog relative to plasma.at3

Kapp as a percentage of the plasma ATIII value [1] [%]	kapp (apparent second-order inhibition rate constant) [2] [M⁻¹ s⁻¹]	Kapp as a percentage of the plasma ATIII value [3] [%]	kapp (apparent second-order inhibition rate constant) [4] [M⁻¹ s⁻¹]	IC50 IIa/UFH; HCA #2 [5] [nM]	IC50 IIa/UFH; HCA #3 [5] [nM]	IC50 IIa/UFH; HCA #4 [5] [nM]	rsd. IIa catG; CA #12; stg1 conc 200 [5] [%]	rsd. IIa catG; CA #14; stg1 conc 200 [5] [%]	rsd. IIa catG; CA #15; stg1 conc 200 [5] [%]	rsd. IIa hne; CA #14; stg1 conc 200 [5] [%]	rsd. IIa no add; CA #14; stg1 conc 200 [5] [%]	IC50 fXa/UFH; HCA #4 [6] [nM]	rsd. Xa catG; CA #14; stg1 conc 200 [6] [%]	rsd. Xa hne; CA #14; stg1 conc 200 [6] [%]	rsd. Xa no add; CA #14; stg1 conc 200 [6] [%]	kapp (apparent second-order inhibition rate constant) [7] [M⁻¹ s⁻¹]	Kapp as a percentage of the plasma ATIII value [8] [%]	kapp (apparent second-order inhibition rate constant) [9] [M⁻¹ s⁻¹]	Kapp as a percentage of the plasma ATIII value [10] [%]	other results	Binder
34	2.01e+06	510	1.25e+06	65	47	50	1	1	1	2	2	13	1	1	2	10700	217	2680	38	rsd. IIa hne; CA #15; stg1 conc 200 [5]: 6%; rsd. IIa no add; CA #15; stg1 conc 200 [5]: 0%; IC50 fXa/UFH; HCA #2 [6]: 20 nM; IC50 fXa/UFH; HCA #3 [6]: 16 nM; rsd. Xa catG; CA #12; stg1 conc 200 [6]: 1%; rsd. Xa catG; CA #15; stg1 conc 200 [6]: 0%; rsd. Xa hne; CA #15; stg1 conc 200 [6]: 1%; rsd. Xa no add; CA #15; stg1 conc 200 [6]: 0%	B1
91	5.37e+06	256	831000			25		1		4	1	22	1	2	0	5360	145	2920	41		B2
36	2.11e+06	1150	489000	75	43	55	1	1	1	3	7	40	2	4	2	24100	85	7310	104	rsd. IIa hne; CA #12; stg1 conc 200 [5]: 2%; rsd. IIa hne; CA #15; stg1 conc 200 [5]: 4%; rsd. IIa no add; CA #12; stg1 conc 200 [5]: 1%; rsd. IIa no add; CA #15; stg1 conc 200 [5]: -1%; IC50 fXa/UFH; HCA #2 [6]: 65 nM; IC50 fXa/UFH; HCA #3 [6]: 46 nM; rsd. Xa catG; CA #12; stg1 conc 200 [6]: 1%; rsd. Xa catG; CA #15; stg1 conc 200 [6]: 0%; rsd. Xa hne; CA #12; stg1 conc 200 [6]: 1%; rsd. Xa hne; CA #15; stg1 conc 200 [6]: 1%; rsd. Xa no add; CA #12; stg1 conc 200 [6]: 1%; rsd. Xa no add; CA #15; stg1 conc 200 [6]: 1%	B3
